Key:
HIV-1Ba-L = test: HIV-1 Ba-L replication in human primary macrophage cultures, p24 ELISA; assay type: cell-based; settings: M-tropic, human primary macrophages
From the text: (§1) To test the anti-HIV activity of CNID1 against HIV primary isolates in fresh human cells, monocyte-tropic HIV-1 strain Ba-L was obtained from the NIAID AIDS Research and Reference Reagent Program (National Institutes of Health, Bethesda, Md.). The low passage HIV-1 pediatric isolate ROJO was derived as described previously (Buckheit et al., AIDS Res. Hum. Retroviruses, 10: 1497-1506 (1994)). Human peripheral blood mononuclear cells (PBMCs) and macrophages were isolated from hepatitis and HIV seronegative donors following Ficoll-Paque centrifugation as described elsewhere (Gartner & Popovic, Techniques in HIV Research, Aldovini, A. and Walker B., eds., pp. 59-63, Stockton Press, New York, 1990). Antiviral assays were carried out with 3-day-old phytohaemagglutinin/interleukin-2 stimulated PBMCs or 6-day-cultured monocyte/macrophages. […] HIV-1 replication in PBMC (ROJO) or monocyte macrophage (Ba-L) cultures were determined by measurement of reverse transcriptase activity (Buckheit et al., Antiviral Res., 21: 247-265 (1993)) in the supernatants or p24 antigen expression by ELISA (Coulter, Hialeah, Fla.), respectively. Cell viability by formazan dye reduction was determined in replicated cultures using the CellTiter reagent (Promega, Madison, Wis.). […]

PBMC = test: Cell viability of PBMC cultures (CellTiter formazan dye reduction); assay type: cell-based, human
From the text: as §1

human PBMCs = test: Toxicity in PHA-stimulated human PBMCs, XTT cell viability; settings: human PBMCs, XTT, 7 days
Procedure: The cultures were incubated for 7 days at 37° C./5% CO2. Efficacy of the compounds was evaluated by measuring the amount of reverse transcriptase in the culture supernatant and toxicity was evaluated using XTT to measure cell viability. AZT was evaluated in parallel as an assay control.

HIV-1IIIB gp120 = HIV-1IIIB gp120 (Human immunodeficiency virus type 1 group M subtype B, UniProt P04578); settings: ELISA
Procedure: High protein binding Greiner 96-well plates (VWR, Bridgeport, N.J.) were coated with 1 pmol/well of recombinant HIV-1IIIIB gp120 (Immuno Diagnostics, Woburn, Mass.) or recombinant HIV-1HXB2 gp41 (Vybion Inc., Ithaca, N.Y.) at 4° C. overnight. The wells were emptied and then blocked with 200 μl/well of 3% non-fat dry milk (Bio-Rad, Hercules, Calif.) blocking solution for 2 hrs. A control plate was incubated with blocking solution only. After washing three times with PBST, 0.5-log10 serial dilutions of rCNID-1-Trx were added to triplicate wells of gp120−, gp41− and the blocking solution control plate, and the plates were incubated for 2 hrs. The plates were washed with PBST and 100 W/well of a 1:250 dilution of polyclonal rabbit anti-CNID-1 antibody was added and allowed to incubate for 1 hr, followed by three washes with PBST. Goat anti-rabbit (H+L), peroxidase conjugated secondary antibody (Thermo Fisher Scientific Inc., Rockford, Ill.) was added to each well (100 μl/well of a 1:1000 dilution) and further incubated for 1 hr, followed by three washes with PBST. The TMB 2-component Microwell peroxidase substrate kit (KPL Inc., Gaithersburg, Md.) was used for peroxidase detection: 100 W/well, incubation for 5-10 min and the reaction was stopped by addition of 0.5M HCl (100 W/well) before reading the absorbance at 450 nm.
Briefly, 100 ng/wells of glycosylated recombinant HIV-1IIIB gp120 (Immuno Diagnostics, Woburn, Mass.) or nonglycosylated HIV-1 gp120 (MyBioSource LLC, San Diego, Calif.) was added to the wells of two 96-well plates, and incubated overnight at 4° C. The plates were washed and blocked as previously described. Serial dilutions of rCNID-1-Trx were added (100 W/well); incubation done for 2 hrs. The plates were then washed and visualized using anti-CNID-1 polyclonal antibodies as above.

B1: CNID-1: HIV-inhibitory protein from soft coral Synthecium sp.; 172 amino acids, 18,122 Da, SEQ ID NO: 1 (protein)
chain: GRATLGQLKTSTIPPVTFDVPFDGANIPQDVRFTIATVNGGKGALYNAELGESAGHTIVLESDGDHPIPGTFDPKSGRGLDYLPRGLVLFSSHNYVGNMKMYTEPDSDITADFPPGTPFGVSSAITGEGSAFQLNTGIDHTGEFEIIPPNTKRNLAGVFDNEIRSVSPTGGK
In the case of B1, the EC50 (HIV-1Ba-L) is reported as 1.05 nM, the CC50 (PBMC) is reported as 144 nM and the TC50 (human PBMCs) is reported as greater than 0.5 µg/mL. For the same molecule, the “Binding to glycosylated versus non-glycosylated gp120” value (HIV-1IIIB gp120; 100 ng/well) was “bound better to glycosylated gp120 as compared to non-glycosylated gp120” and the “Binding to gp120” value (HIV-1IIIB gp120; 100 ng/well gp120) was “specific binding to viral glycoprotein gp120 in a concentration-dependent manner”.
